Measured values reported in patent US20260007747A1 (VIVASOR, published 2026).

B1: αPDL1-γ-TCRγδ receptor encoded by construct GD109 (other)
chain 1: EVQLVESGAEVKKPGSSVKVSCKASGGTFSSYAISWVRQAPGQGLEWMGGIIPIFGTANYAQKFQGRVTITADESTSTAYMELSSLRSEDTAVYYCARAPYYYYYMDVWGQGTTVTVSSGGGGSGGGGSGGGGSQSALTQPASVSGSLGQSVTISCTGSSSDVGSYNLVSWYQQHPGKAPNLMIYDVSKRSGVSNRFSGSKSGNTASLTISGLQAEDEADYYCSSYTGISTVVFGGGTKLTVLPIKTDVITMDPKDNCSKDANDTLLLQLTNTSAYYMYLLLLLKSVVYFAIITCCLLRRTAFCCNGEKS
chain 2: EVKTDSTDHVKPKETENTKQPSKSCHKPKAIVHTEKVNMMSLTVLGLRMLFAKTVAVNFLLTAKLFFL
B2: αPDL1-δ-TCRγδ receptor encoded by construct GD102 (other)
chain 1: EVQLVESGAEVKKPGSSVKVSCKASGGTFSSYAISWVRQAPGQGLEWMGGIIPIFGTANYAQKFQGRVTITADESTSTAYMELSSLRSEDTAVYYCARAPYYYYYMDVWGQGTTVTVSSGGGGSGGGGSGGGGSQSALTQPASVSGSLGQSVTISCTGSSSDVGSYNLVSWYQQHPGKAPNLMIYDVSKRSGVSNRFSGSKSGNTASLTISGLQAEDEADYYCSSYTGISTVVFGGGTKLTVLEVKTDSTDHVKPKETENTKQPSKSCHKPKAIVHTEKVNMMSLTVLGLRMLFAKTVAVNFLLTAKLFFL
chain 2: PIKTDVITMDPKDNCSKDANDTLLLQLTNTSAYYMYLLLLLKSVVYFAIITCCLLRRTAFCCNGEKS
B3: PD-L1 CAR-ζFL (other)
chain: EVQLVESGAEVKKPGSSVKVSCKASGGTFSSYAISWVRQAPGQGLEWMGGIIPIFGTANYAQKFQGRVTITADESTSTAYMELSSLRSEDTAVYYCARAPYYYYYMDVWGQGTTVTVSSGGGGSGGGGSGGGGSQSALTQPASVSGSLGQSVTISCTGSSSDVGSYNLVSWYQQHPGKAPNLMIYDVSKRSGVSNRFSGSKSGNTASLTISGLQAEDEADYYCSSYTGISTVVFGGGTKLTVLAKPTTTPAPRPPTPAPTIASQPLSLRPEACRPAAGGAVHTRGLDFAPRKIEVMYPPPYLDNEKSNGTIIHVKGKHLCPSPLFPGPSKPFWVLVVVGGVLACYSLLVTVAFIIFWVKRGRKKLLYIFKQPFMRPVQTTQEEDGCSCRFPEEEEGGCELRVKFSRSADAPAYQQGQNQLYNELNLGRREEYDVLDKRRGRDPEMGGKPRRKNPQEGLYNELQKDKMAEAYSEIGMKGERRRGKGHDGLYQGLSTATKDTYDALHMQALPPR

Molecular target: PD-L1 expressed on tumor cells (A549 wild type, MDA-MB-231, SK-MEL-5) (human, UniProt Q9NZQ7 19-290)
Assay: cell-based or functional assay

PD-L1 expressed on tumor cells (A549 wild type, MDA-MB-231, SK-MEL-5), sequence (Q9NZQ7 19-290): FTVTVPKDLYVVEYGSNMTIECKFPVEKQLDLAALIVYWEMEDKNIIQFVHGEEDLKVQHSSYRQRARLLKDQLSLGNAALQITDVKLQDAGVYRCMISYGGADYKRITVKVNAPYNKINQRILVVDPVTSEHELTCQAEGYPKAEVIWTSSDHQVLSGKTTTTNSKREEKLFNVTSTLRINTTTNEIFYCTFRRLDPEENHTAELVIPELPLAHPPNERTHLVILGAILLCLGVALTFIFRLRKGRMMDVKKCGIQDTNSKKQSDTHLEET

| Binder | expansion of T cells on irradiated tumor cells, E:T 1:4 |
| --- | --- |
| B1 | > 100 fold |
| B2 | > 100 fold |
| B3 | > 100 fold |
